The target in the experiment is Recombinant human BAX (wild type) (human) (UniProt Q07812). Briefly: SEC.

“Recombinant human BAX (wild type) (from UniProt Q07812-1) (natural protein)”: the share of the BAX population shifted toward oligomers is over 70%.

Values taken from PMC9004659.
